For series [1], the target named is T1, Gsx2HD L216E (Mus musculus, UniProt P31316 203-264, L216E). Nature of the series: EMSA; binds equally to WT; little to no cooperativity; ITC: 50 mM sodium phosphate pH 6.5, 150 mM NaCl, 20 C; EMSA: 35 nM probe, 15 min room temperature, buffer as in cited ref 31. To be noted: protein: recombinant; tags: N-terminal His-tag, cleaved with PreScission; label: 5' IRDye700 on complementary strand (linker S14); blunt.

The target in series [2] is T2, Gsx2HD L231E (Mus musculus, UniProt P31316 203-264, L231E). Described as above. Conditions: protein: recombinant; tags: N-terminal His-tag, cleaved with PreScission; label: 5' IRDye700 on complementary strand (linker S14); blunt.
The target in series [3] is T3, Gsx2HD S212E (Mus musculus, UniProt P31316 203-264, S212E). Described as above. Conditions: protein: recombinant; tags: N-terminal His-tag, cleaved with PreScission; label: 5' IRDye700 on complementary strand (linker S14); blunt.
The target of series [4] is T4, Gsx2 167-305 (Mus musculus, UniProt P31316 167-305). Nature of the series: ITC; K 1.3 ± 0.6 x10^7 M-1; N 0.85; ITC: 50 mM sodium phosphate pH 6.5, 150 mM NaCl, 20 C; EMSA: 35 nM probe, 15 min room temperature, buffer as in cited ref 31. To be noted: protein: recombinant; tags: N-terminal His-tag, cleaved with PreScission; chain copies: 2; 5' overhang 1 nt on each strand. A general note: ITC needs no label: the signal is the heat of the interaction.

The target of series [5] is T5, Gsx1HD (Mus musculus, UniProt P31315 146-207). Nature of the series: ITC; K 5.5 ± 0.8 x10^7 M-1; N 0.96; ITC: 50 mM sodium phosphate pH 6.5, 150 mM NaCl, 20 C; EMSA: 35 nM probe, 15 min room temperature, buffer as in cited ref 31. To be noted: protein: recombinant; 5' overhang 1 nt on each strand.
Series [6] deals with T6, Gsx2HD (Mus musculus, UniProt P31316 203-264). The series is described as follows: ITC; K 6.8 ± 4.2 x10^7 M-1; N 1.02; ITC: 50 mM sodium phosphate pH 6.5, 150 mM NaCl, 20 C; EMSA: 35 nM probe, 15 min room temperature, buffer as in cited ref 31. To be noted: protein: recombinant; tags: N-terminal His-tag, cleaved with PreScission; chain copies: 2; 5' overhang 1 nt on each strand.

A further series concerns the target Gsx2HD I234E (Mus musculus, UniProt P31316 203-264, I234E). Nature of the series: ITC; K 5.1 ± 4.2 x10^7 M-1; N 1.05; Fig S6 isotherm 14.7 nM; ITC: 50 mM sodium phosphate pH 6.5, 150 mM NaCl, 20 C; EMSA: 35 nM probe, 15 min room temperature, buffer as in cited ref 31. Conditions: protein: recombinant; tags: N-terminal His-tag, cleaved with PreScission; 5' overhang 1 nt on each strand.

For series [7], the target named is T4, Gsx2 167-305. The series is described as follows: ITC; K 0.7 ± 0.2 x10^7 M-1; N 0.94; ITC: 50 mM sodium phosphate pH 6.5, 150 mM NaCl, 20 C; EMSA: 35 nM probe, 15 min room temperature, buffer as in cited ref 31. Conditions: protein: recombinant; tags: N-terminal His-tag, cleaved with PreScission; chain copies: 2; 5' overhang 1 nt on each strand.
For series [8], the target named is T5, Gsx1HD. The series is described as follows: ITC; K 2.4 ± 0.9 x10^7 M-1; N 0.97; ITC: 50 mM sodium phosphate pH 6.5, 150 mM NaCl, 20 C; EMSA: 35 nM probe, 15 min room temperature, buffer as in cited ref 31. To be noted: protein: recombinant; 5' overhang 1 nt on each strand.
The target in series [9] is T6, Gsx2HD. The series is described as follows: ITC; K 2.8 ± 1.4 x10^7 M-1; N 0.98; ITC: 50 mM sodium phosphate pH 6.5, 150 mM NaCl, 20 C; EMSA: 35 nM probe, 15 min room temperature, buffer as in cited ref 31. To be noted: protein: recombinant; tags: N-terminal His-tag, cleaved with PreScission; chain copies: 2; 5' overhang 1 nt on each strand.
Series [10] has as its target T4, Gsx2 167-305. Nature of the series: EMSA; similar free probe depletion, lower cooperativity; ITC: 50 mM sodium phosphate pH 6.5, 150 mM NaCl, 20 C; EMSA: 35 nM probe, 15 min room temperature, buffer as in cited ref 31. To be noted: protein: recombinant; tags: N-terminal His-tag, cleaved with PreScission; chain copies: 2; label: 5' IRDye700 on complementary strand (linker S14); blunt. A general note: Mobility shift assays separate free from complexed probe on a gel.

Series [11] concerns the target T1, Gsx2HD L216E. Nature of the series: EMSA; binds; reduced cooperativity; ITC: 50 mM sodium phosphate pH 6.5, 150 mM NaCl, 20 C; EMSA: 35 nM probe, 15 min room temperature, buffer as in cited ref 31. To be noted: protein: recombinant; tags: N-terminal His-tag, cleaved with PreScission; label: 5' IRDye700 on complementary strand (linker S14); blunt.
The target of series [12] is T2, Gsx2HD L231E. Described as above. To be noted: protein: recombinant; tags: N-terminal His-tag, cleaved with PreScission; label: 5' IRDye700 on complementary strand (linker S14); blunt.
The target in series [13] is T3, Gsx2HD S212E. The series is described as above. Conditions: protein: recombinant; tags: N-terminal His-tag, cleaved with PreScission; label: 5' IRDye700 on complementary strand (linker S14); blunt.

Changes are numbered by the printed parent chain.

T4 sequence (P31316 167-305): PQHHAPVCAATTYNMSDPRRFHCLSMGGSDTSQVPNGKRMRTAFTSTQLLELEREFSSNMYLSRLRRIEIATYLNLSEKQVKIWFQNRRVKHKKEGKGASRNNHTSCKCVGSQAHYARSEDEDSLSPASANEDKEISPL
T6 sequence (P31316 203-264): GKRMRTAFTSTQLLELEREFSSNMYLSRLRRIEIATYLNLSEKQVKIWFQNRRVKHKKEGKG
T2 sequence (P31316 203-264 L231E): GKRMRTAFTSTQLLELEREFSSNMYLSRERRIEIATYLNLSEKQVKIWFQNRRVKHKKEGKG
T3 sequence (P31316 203-264 S212E): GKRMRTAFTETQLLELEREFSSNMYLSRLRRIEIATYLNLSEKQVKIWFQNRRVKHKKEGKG
T1 sequence (P31316 203-264 L216E): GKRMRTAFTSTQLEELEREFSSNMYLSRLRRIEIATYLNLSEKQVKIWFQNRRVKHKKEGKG
T5 sequence (P31315 146-207): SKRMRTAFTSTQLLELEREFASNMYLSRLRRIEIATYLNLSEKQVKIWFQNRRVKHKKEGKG
Chain of Gsx2HD I234E (P31316 203-264 I234E): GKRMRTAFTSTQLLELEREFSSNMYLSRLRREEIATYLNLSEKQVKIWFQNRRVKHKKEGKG

B1: 8bpS dimer probe (dsDNA)
DNA 1: TCCAACTAATTAAAGATTTAATTCGTAGTGCGGGCGTGGCT
DNA 2: AGCCACGCCCGCACTACGAATTAAATCTTTAATTAGTTGGA
Take B1: the binding result with Gsx2HD L216E [1], in the series with Gsx2HD L231E [2] and with Gsx2HD S212E [3] was “binds” in each case.

B2: TAATTA consensus 15-mer (dsDNA)
DNA 1: TGAGCTAATTAAAGC
DNA 2: AGCTTTAATTAGCTC
With B2, the Kd (usually the constant that tells how readily two partners part at equilibrium) with Gsx2 167-305 [4] was determined as 77 nM; in the series with Gsx1HD [5], 18 nM; with Gsx2HD [6], 15 nM; with Gsx2HD I234E, 20 nM.

B3: TAATGG 15-mer (Common Q50 site) (dsDNA)
DNA 1: TGAGCTAATGGAAGC
DNA 2: AGCTTCCATTAGCTC
Turning to B3, the equilibrium dissociation constant (Kd) with Gsx2 167-305 [7] was determined as 143 nM; with Gsx1HD [8], 42 nM; with Gsx2HD [9] it was 36 nM.

B4: GCGGG spacer dimer probe (dsDNA)
DNA 1: TCCAACTAATTAGCGGGTAATTCGTAGTGCGGGCGTGGCT
DNA 2: AGCCACGCCCGCACTACGAATTACCCGCTAATTAGTTGGA
Consider B4, for which the “cooperativity factor (tau)” value with Gsx2 167-305 [10] was 12.6 tau cooperativity factor (mean of 3 G/C spacer probes).

B5: 7bpS / AAATT spacer dimer probe (dsDNA)
DNA 1: B4 DNA 1 with G13A, C14A, G15A, G16T, G17T
DNA 2: B4 DNA 2 with C24A, C25A, C26T, G27T, C28T
For B5, the binding result with Gsx2HD L216E [11], in the series with Gsx2HD L231E [12] and in the series with Gsx2HD S212E [13] was “binds” in each case.

B6: GGGCC spacer dimer probe (dsDNA)
DNA 1: B4 DNA 1 with C14G, G16C, G17C
DNA 2: B4 DNA 2 with C24G, C25G, G27C
For the molecule B6, the “cooperativity factor (tau)” value in the series with Gsx2 167-305 [10] is 12.6 tau cooperativity factor (mean of 3 G/C spacer probes).

B7: GCCGG spacer dimer probe (dsDNA)
DNA 1: B4 DNA 1 with G15C
DNA 2: B4 DNA 2 with C26G
As to B7, the “cooperativity factor (tau)” value in the series with Gsx2 167-305 [10] is 12.6 tau cooperativity factor (mean of 3 G/C spacer probes).

For the origin of these results see paper PMC11260452, “Cooperative Gsx2–DNA binding requires DNA bending and a novel Gsx2 homeodomain interface”.
